From patent US20120156203A1

Target: human IL13 (human) (UniProt P35225)
Assay: cell-based or functional assay

human IL13 (human), sequence (P35225 other isoform, or with tags, fused parts or gaps limits assumed): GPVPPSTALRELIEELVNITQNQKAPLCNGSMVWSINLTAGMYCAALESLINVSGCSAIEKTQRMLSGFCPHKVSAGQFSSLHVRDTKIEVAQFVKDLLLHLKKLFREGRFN

concentration for complete inhibition of IL13-suppressed CD14 expression on human monocytes (0.813 nM IL13): > 80 nM
Substance: anti-IL13 MAb JES10-5A2 (BD Biosciences-Pharmingen) (antibody)
